Measurements published in article PMC7982615, “Phase 1 study of telisotuzumab vedotin in Japanese patients with advanced solid tumors” (Cancer Medicine, 2021).
“Also recorded” adds a separate entry of the source.

Experiment: Safety and tolerability (TEAEs, DLTs, AESIs) in phase 1 dose-escalation study of teliso‐v
Format: in vivo, human
Conditions: for Dose‐limiting toxicity (DLT) events: 2.4 and 2.7 mg/kg IV Q3W, dose escalation
Protocol: This phase 1, open‐label, dose‐escalation clinical trial was conducted at two sites in Japan (NCT03311477). Enrollment began on November 6, 2017, and the trial was completed on March 4, 2019.
Escalation into the higher dose level proceeded if the first three evaluable patients in the lower dose level completed the first‐cycle (for at least 21 days) safety assessment without experiencing a dose‐limiting toxicity (DLT). DLT evaluations for dose escalation and determination of RP2D were carried out by investigators, study sponsor, and an independent safety monitor. […] No premedication was required. On the basis of confirmed availability of archival tumor tissue at enrollment, patients were retrospectively analyzed for c‐Met expression and MET amplification. c‐Met expression was determined by immunohistochemistry (IHC), and MET amplification was determined by fluorescence in situ hybridization or sequencing of plasma or tumor DNA.
Safety assessments included treatment‐emergent adverse events (TEAEs) graded according to the National Cancer Institute Common Terminology Criteria for Adverse Events version 4.03. TEAEs, vital signs, physical examinations, electrocardiograms, laboratory tests, and ECOG performance status were monitored during the study. Any grade ≥3 study drug‐related nonhematologic toxicity was documented as a DLT, except as follows: grade 3 nausea or vomiting lasting ≤48 hours that was successfully managed with antiemetics; grade 3 diarrhea successfully managed with antidiarrheal; grade 3 constipation lasting ≤7 days; grade 3 acute infusion reaction that resolved to grade ≤1 within 24 hours after the end of dosing; grade 3 and 4 laboratory tests including but not limited to lactate dehydrogenase, alkaline phosphatase, and gamma‐glutamyl transferase that were considered nonclinically significant by the investigator; liver function test abnormalities; grade 3 and 4 electrolyte imbalance unless associated with clinical symptomatology despite supplementation; and grade 3 hyperglycemia that was manageable without hospitalization. The following hematologic toxicities were documented as a DLT: any grade 4 hematologic toxicity (excluding febrile neutropenia or leukopenia lasting for ≤7 days, or lymphopenia); anemia requiring red blood cell transfusion; thrombocytopenia requiring platelet transfusion; grade 3 thrombocytopenia in the presence of grade ≥2 bleeding; and grade ≥3 febrile neutropenia. Toxicity management criteria are described in the Supplementary appendix.
All data were summarized and tabulated by dose cohort. Categoric data were summarized in terms of frequency counts and percentages. Continuous data were summarized using descriptive statistics, including number of observations, mean, standard deviation, median, minimum, and maximum. No formal statistical analysis was performed for efficacy variables, which were all exploratory in nature. ORR was defined as the proportion of patients with a confirmed partial response (PR) or complete response (CR). Duration of response was defined as time from a patient's initial objective response to the first date of disease progression (PD) or death. The overall disease control rate was defined as the proportion of patients with CR, PR, or stable disease (SD). […] PFS was estimated using the Kaplan–Meier method. Efficacy analyses are presented with two‐sided exact 95% binomial CI.

[1] = total, N = 9, listed as teliso-v
[2] = total, N = 9, listed as telisotuzumab vedotin
[3] = total, N = 9, listed as teliso‐v

Teliso‐v: antibody‐drug conjugate: anti–c‐Met humanized monoclonal antibody ABT‐700 coupled to monomethyl auristatin E through a valine‐citrulline linker, drug:antibody ratio approximately three
Dose‐limiting toxicity (DLT) events: no DLTs were reported; also recorded: no DLTs observed
Dose‐limiting toxicity (DLT) events (listed as telisotuzumab vedotin): no dose‐limiting toxicity events were observed
Hematologic AEs (AESI) (2.4‐mg/kg dose level): 33%
Peripheral neuropathy events (AESI) (2.4‐mg/kg dose level): three
Hematologic AEs (AESI) (2.7‐mg/kg dose level): 67%
Ocular AESIs (2.7‐mg/kg dose level): three
Peripheral neuropathy events (AESI) (2.7‐mg/kg dose level): three
Frequency of corneal epithelium disorder (Japanese patients, four of nine): 44.4%
AEs leading to withdrawal of consent (N = 9): three
Dry eye (ocular AESI) (N = 9): one
Keratitis (ocular AESI) (N = 9): one
Patients with at least one TEAE (N = 9): nine
Patients with at least one TEAE related to teliso‐v (N = 9): nine
Patients with serious AEs (N = 9): two
Punctate keratitis (ocular AESI) (N = 9): two
Serious AEs, number of events (N = 9): Three
Visual impairment (ocular AESI) (N = 9): one
Maximum tolerated dose (doses up to 2.7 mg/kg Q3W, 3 + 3 design): not reached
Deaths (either dose level): No deaths were reported
Recommended phase 2 dose (RP2D) (every 3 weeks, Japanese patients): 2.7 mg/kg
Ocular AESIs (grade 1 or 2, total, N = 9): 44%
TEAE leading to treatment discontinuation (grade 2, teliso‐v related serious AE, 2.7‐mg/kg dose level): gait disturbance
Peripheral neuropathy events (AESI) (grades 1 and 2, total, N = 9): 67%
Alanine aminotransferase increased, TEAE regardless of relationship (total, N = 9): 2 (22) n (%)
Alanine aminotransferase increased, TEAE related to teliso‐v (total, N = 9): 2 (22) n (%)
Alopecia, TEAE regardless of relationship (total, N = 9): 2 (22) n (%)
Alopecia, TEAE related to teliso‐v (total, N = 9): 2 (22) n (%)
Anemia, TEAE regardless of relationship (total, N = 9): 2 (22) n (%)
Aspartate aminotransferase increased, TEAE regardless of relationship (total, N = 9): 2 (22) n (%)
Aspartate aminotransferase increased, TEAE related to teliso‐v (total, N = 9): 2 (22) n (%)
Back pain, TEAE regardless of relationship (total, N = 9): 2 (22) n (%)
Constipation, TEAE regardless of relationship (total, N = 9): 2 (22) n (%)
Decreased weight, TEAE regardless of relationship (total, N = 9): 33%
Decreased white blood cell count, TEAE regardless of relationship (total, N = 9): 33%
Decreased white blood cell count, TEAE related to teliso‐v (total, N = 9): 33%
Diarrhea, TEAE regardless of relationship (total, N = 9): 2 (22) n (%)
Fatigue, TEAE regardless of relationship (total, N = 9): 2 (22) n (%)
Fatigue, TEAE related to teliso‐v (total, N = 9): 2 (22) n (%)
Hypoalbuminemia, TEAE regardless of relationship (total, N = 9): 2 (22) n (%)
Malaise, TEAE regardless of relationship (total, N = 9): 2 (22) n (%)
Malaise, TEAE related to teliso‐v (total, N = 9): 2 (22) n (%)
Neutrophil count decreased, TEAE regardless of relationship (total, N = 9): 2 (22) n (%)
Neutrophil count decreased, TEAE related to teliso‐v (total, N = 9): 2 (22) n (%)
Peripheral neuropathy, TEAE regardless of relationship (total, N = 9): 2 (22) n (%)
Peripheral neuropathy, TEAE related to teliso‐v (total, N = 9): 2 (22) n (%)
Punctate keratitis, TEAE regardless of relationship (total, N = 9): 2 (22) n (%)
Punctate keratitis, TEAE related to teliso‐v (total, N = 9): 2 (22) n (%)
Weight decreased, TEAE regardless of relationship (total, N = 9): 3 (33) n (%)
Weight decreased, TEAE related to teliso‐v (total, N = 9): 2 (22) n (%)
White blood cell count decreased, TEAE regardless of relationship (total, N = 9): 3 (33) n (%)
White blood cell count decreased, TEAE related to teliso‐v (total, N = 9): 3 (33) n (%)
Decreased appetite, TEAE regardless of relationship [1]: 3 (33) n (%)
Nausea, TEAE regardless of relationship [1]: 3 (33) n (%)
Peripheral sensory neuropathy, TEAE regardless of relationship [1]: 4 (44) n (%)
Decreased appetite, TEAE related to teliso‐v [2]: 33%
Nausea, TEAE related to teliso‐v [2]: 33%
Peripheral sensory neuropathy, TEAE related to teliso‐v [2]: 44%
Decreased appetite, TEAE regardless of relationship [3]: 33%
Decreased appetite, TEAE related to teliso‐v [3]: 3 (33) n (%)
Nausea, TEAE regardless of relationship [3]: 33%
Nausea, TEAE related to teliso‐v [3]: 3 (33) n (%)
Peripheral sensory neuropathy, TEAE regardless of relationship [3]: 44%
Peripheral sensory neuropathy, TEAE related to teliso‐v [3]: 4 (44) n (%)
